B1: TPR t1 (parent)
chain: GACCAAUCUGCCCUCAGAGCUCGAGAACAUCUUCGGAUGCAGAGGAGGCAGGCUUCGGUGGCGCGAUAGCGCCAACGUCCUCAACCUCCAAUGCAUCCCACCACAUGAUGAUGCCUGAAGAGCCUUGGUUUUUUG

Variants of: B1
Test: polymerase ribozyme fitness, log enrichment relative to wild type (log ratio); higher = more active; in vitro selection for triplet polymerase activity
Procedure, shortened: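 Fitness measures genotype enrichment against wild-type enrichment on a logarithmic scale, with inverse-variance-weighted averaging of replicates. The logarithm is base 2, and genotypes were kept only with ≥10 input reads and ≥1 read per output in Illumina sequencing. The sequenced libraries came from one triplicate in vitro selection round, including frozen incubation at −7 °C, of PCR-built, transcribed mutant libraries of each subunit of a heterodimeric triplet polymerase ribozyme.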

| Variant | polymerase ribozyme fitness (log ratio) |
| --- | --- |
| GACCAAUCUGCCCUCAGAGCUCGAGAACAUCUUCGGAUGCAGAGGAGGCAGGCUUGGGUGGCGCGAUAGCGCCAACGUCCUCAACCUCCAAUGCAUCCCACCACAUGAUGAGGCCUGAAGAGCCUUGGUUUUUUG [C56G U112G] | 0.023 |
| GACCAAUCUGCCCUCAGAGCUCGAGAACAUCUUCGGAUGCAGAGGUGGCAGGCUUCGGUGGCGCGAUAGCGCCAACGUCCUCAACCUCCAAUGCAUCCCAUCACAUGAUGAUGCCUGAAGAGCCUUGGUUUUUUG [A46U C101U] | -0.308 |
| GACCAAUCUGGCCUGAGAGCUCGAGAACAUCUUCGGAUGCAGAGGAGGCAGGCUUCGGUGGCGCGAUAGCGCCAACGUCCUCAACCUCCAAUGCAUCCCACCACAUGAUGAUUCCUGAAGAGCCUUGGUUUUUUG [C11G C15G G113U] | -4.66 |
| GACCAAUCUGCUCUCAGAGCUCGAGAACAUCUUCGGAUGCAGAGGAGGCAGGCUUCGGUGGCGCGAUAGCGCCAAGGUACUCAACCUCCAAUGCAUCCUACCACAUGAUGAUGCCUGAAGAGCCUCGGUUUUUUG [C12U C76G C79A C99U U126C] | -5.59 |
| GACCAAUCUGCCCUAAGAGCUCGAGAACAUCUUCGGAUGCAGAGGAGCCAGGCUUCGGUGGCGCGAUAGUGCCAACGUCCUCAACCUCCAAUGCAUCCCACCACAUGAUGAUGCCUGAAGAGCCUUGGUUUUUUG [C15A G48C C70U] | -3 |
| GACCAAUCUGCCCUCAGAGCUCGAGAACAUCUUCGGAUGGAGAGGAGGCAGGCUUCGGUGGCGCGAUAGCGCCAACGUCCUCAACCUCCAAUGCAUCCCACCACAUGAUGAUUUCUGAAGAGCCUUGGUUUUGUG [C40G G113U C114U U133G] | -2.25 |
| GACCAAUCUGCCCUCAGAGCUCGAGAAUAUCUUCGGAUGCAGAGGAGGCAGGCUUCGGUGGCGCGAUAGCUCCAACGUCCUCAACCUCCAAUGCAUCCCACCACAUGAUGAUGCCUGAAGAGCCUUGGUUUUUUG [C28U G71U] | -2.6 |
| GACCAAUCUGCCCUCAGAGCUCGAGAACAUCUUCGGAUGCAGAGGAGGCAGGAUUCGGUGGCGCGAUAGCGCAAACGUCCUCAACCUCCAAUGCAUCCCACCACAUGAUGAUGCCUGAAGAGCCUUGGUUUUUUG [C53A C73A] | -0.0116 |
| GACCAAUCUGCCCUCAGAACUCGAGAACAUCUUCGGAUGCAGAGGAGGCAGGCUUCGGUGGCGCGAUAGCGCCAACGUCCUCAACCUCCAAUGCAACCCACCACAUGAUGAUGACUGAAGAGCCUUUGUUUUUUG [G19A U96A C114A G127U] | -3.48 |
| GACCAAUCUGCCCUCAGAGCUCGAGAACAUCUUCGGAUGCAGAGGAGGCAGGCUUCGGUGGCGCGAUAGCGCCAACGUCCUCAACCUUCAAUGCAUCCCACCACAUGAUGAUGCCUGAAUAGCCUGGGUUUUUUG [C88U G120U U126G] | -3.22 |
| GACCAAUCUGCCAUCAGAGCUCGAGAACAUCUUCGGAUGCAGAGGAGGCAGACUUCGGCGGCGCGAUAGCGCCAACGUCCUCAACCUCCAAUGCAUCCCACCACAUGAUGAUACCUGAAGAGCCUUGGUUUUUUG [C13A G52A U59C G113A] | -3.69 |
| GACCAAUCUGCCCUCAGAGCUCGAGUACAUCUUCGGAUGCAGAGGAGGUAGGCUUCGGUGGCGCGAUAGCGCCAACGUCCUCAACCUCCAAUGCAUCUCACCACAUGAUGAUGCCUGAAGAGCCUUGGUUUUUUG [A26U C49U C98U] | -4.89 |
| GACCAAUCUGCCCUCAGGACUCGAGAACAUCUUCGGAUGCAGAGGAGGCAGGCUUCGGUGGCGCGAUAGCGCCAACGUCCUCAACCUCCAAUGCAUCCCACCACAUGAUGAUGCCUGAAGAGCCUUGGUUUUUUG [A18G G19A] | -1.4 |
| GACCAAUCUGUCCUCAGAGCUCGAGAACAUCUUCGGAUGCAGAGGAGGCAGGCUUCGGUGGCGCGAUAGCGACAACGACCUCAACCUCCAAUGCAUACCACCACAUGAUGAUGCCUGAAGAGCCUUGGUUUUUUG [C11U C72A U78A C97A] | -5.56 |
| GACCAAUCUGCCCUCAGAGCUCGAGAACAUCUUCGGAUGCAGAGGCGGCAGGCUUCGGUGGCGCGAUAGCGUCAUCGUCCUCAACCUCCAAUGCAUCCCACCACAUGAUGAUGCCUGAAGAGUCUUGGUUUUUUG [A46C C72U A75U C123U] | 0.328 |
| GACCAAUCUGCCCUCAGAGCUCGAGAACAUCUUCGGAUGAAGAGGAGGCAGGCUUCGGUGGCGCGAUAGCGCCAACGUCUUCAACCUCUAAUGCAUCCCACCACAUGAUGAUGCCUAAAGGGCCUUGGUUUUUUG [C40A C80U C89U G117A A121G] | -0.909 |
| GACCAAUCUGCCCGCAGAGCUCGAGAACAUCUUCGGAUGCAGAGAAGGCAGGCUUCGGUGGCGCGAUAGCGCCAACGUCCUCAACCUCCAAUGCAUCCCACCACAUGAUGAUGCCUGAAGUGCCUUGGUUUUUUG [U14G G45A A121U] | 0.629 |
| GACCAAUCUGCCCUCAGUGCUCGAGAACAUCUUCGGAUGCAGAGGAGGCAGGCUUCGGUGGCGCGAUAGCGGCAACGUCCUCAACCUCCAAUGCAUCCCACCACAUGAUGAUGCCUGAAGAGCCUUGGUAUUUUG [A18U C72G U130A] | -4.54 |
| GACCAAGCUGCCGUCAGAGCUCGAGAACAUCUUCGGAUGCAGAGGAGGCAGGCUUCAGUGGCGCGAUAGCGCCAACGUCCUCAACCUCCAAUGCAUCCCACCACAUGAUGAUGCCUGAAGAGCCUUGGUUUUUUG [U7G C13G G57A] | -0.156 |
| GACCAAUCUGCCCUCAGAGCUCGAGAACAUCUUCGGAUGCAGAGGAGGCAGGCUUCGGUGGCGCGAAAGCGCCAACGUCCUCAACCUCCAAUGCAUCCCACCACAUGAUGAUGCCUGAAGAGUCUUGGUUUUUUG [U67A C123U] | -5.81 |
| GACCAAUCUGCCCUCAGAGCUCGAGAACAUCUUGGGAUGCAGAGGAGGCAGGCUUCGGUGGCGCGAUAGCGCCUACGUCCUCAACCUCCCAUGCAUCCCACCACAUGAUGAGGCCUGAAGAGCCUUGGUUUUUUG [C34G A74U A90C U112G] | -6.64 |

| Variant | polymerase ribozyme fitness (log ratio) |
| --- | --- |
| GACCUAUCUGCCCUCAGAGCUCGAGAACAUCUUCGGAUGCAGAGGAGGCAGGCUUCGGUGGCGCGAUAGCGCCAACGUCCUCAACCUCCAAUGCAUCCCACCACAUGAUGAUGCCUGAAGAGCCUUGGUUAUUUG [A5U U131A] | -2.48 |
| GACCAAUCUGGCCUCAGAGCUCGAGAACAUCUUCGGAUGCAGAGGAGGCAGGCUUCGGUGGCGCGAUAGCGCCAACGUCCUCAUCCUCCAAUGCAUCCCACCACAUGAUGAUGCCUGAAGAGCCUUGGUUUUUUG [C11G A84U] | -0.202 |
| GACCAAUCUGCCCUCAGAGCUCGAGAACAUCUUCGGAUGCAGAGGAGGCAGGCUUCGGUGGCGCGAUAGCGCCAACGUCCUCAACCUCCAAUGCAUCCCACCACAAGAUGAUGCCUGAAGAGCCUUGGAUUUUUG [U106A U129A] | -1.17 |
| GACCAAUCUGCCCUCAGAGCUCGAGAACAUCUUCGGAUGCAGAGGAGGCAGGCUUUGGUGGCGCGAUAUCGCCAACGUUCUCAACCUCCAAUGCAUCCCACCACAUGAUGAUGCCUGAAAAGCCUUGGUGUUUUG [C56U G69U C79U G120A U130G] | -1.59 |
| GACCAAUCUGCCCUCAGAGCUCGAGAACAUGUUCGUAUGCAGAAGAGGCAGGCUUCGGUGGCGCGAUAGCGCCUACGUCCUCAACCUCCAAUGCAUCCCACCACAUGUUGAGGCCUGAAGAGCCUUGGUUUUUUG [C31G G36U G44A A74U A108U U112G] | -7.74 |
| GACCAAUGUGCCCUCAGAGCUCGAGAACAUCUUCGGAUGCAGAGGAUGCAGGCUUCGGUGGCGCGAUAGCGCCAACGUCCUCAACCUCCAAUGCAUCCCACCACAUGAUGAUGCCUGAAGAGCCUUGGUUUUUUG [C8G G47U] | 0.0211 |
| GACCAAUCUGCCCUCAGAGCUCGAGAACAUCUUCGGAUGCAGAGGAGGCAGGCUUCGGUGGCGCGAUAGCGCCAACGCCCUCAAGCUCCAAUGCAUCCCACCACAUGAUGAUGCCUGAAGAGCAUUGGUUUUUUG [U78C C85G C124A] | -0.513 |
| GACCAAUCUGGCCUCAGAGAUCGAGUACAUCUUCGGAUGCAGAGGAGGCAGGCUUCGGUGGCGCGAUAGCGCCAACGUCCUCAAUCUCCUAUGCAUCCCACCACAUGAUGAUGCCUGAAGCGCCUUGGUUUUUUG [C11G C20A A26U C85U A90U A121C] | -4.44 |
| GACCAAUCUGCCCUCAGAGCUCGAGAACAUCUUCGGAUGCAGAGGAGGCAGGCUUCGGUGGCGCGAUAGCGCCAACCUCCUCAACCUCCAAUGCAUCCCACCACAUGAUGAUGCCUGAAGAGCCUUGGAUUUUUG [G77C U129A] | -1.42 |
| GACCAAUCUGCCCUCAGAGCUCGAGAACAUCUUCGGAUGCAGAGGAGGCAGGCUUCGGUGGCUCGAUAGCGCCAACGUCCUCAUCAUCCAAUGCAUCCCACCACAUGAUGAUGCCUGAAGAGCCUUGUUCUUUUG [G63U A84U C86A G128U U130C] | -3.81 |
| GACCAAUCUGCCCUCAGAGCUCGAGAACAUCUUCGGAUGCAGAGGAGGCAGGCUUCGGUGGCGCGAUAGCGCCAACGUCCUCAACCUCCAAUGCAUCCCACCACAUGAAGAUGCCUGAAGAGCCUUGGUUGUUUG [U109A U131G] | -5.71 |
| GACCAAUAUGCCCUCAGAGCUCGAGAACAGCUUCGGAUGCAGAGGAGGCAGGCUUCGGUGGCGCGAUAGCGCCAACGUCCUCAACCUCCAAUGCAUCCCACCACAUGAUGAUGCUUGAAGAGCCUUGGUGUUUUG [C8A U30G C115U U130G] | -5.92 |
| GACCAAUCUGCCCUAAGAGCUCGAGAACAUCUUCGGAUGCAGAGGAGGCAGGCUUCGGUGGCGCGAUAGCGCCAACGUCCUCAAGCUCCAAUGAAUCCCACCACAUGAUGAUGCCUGAAGAGCCUUGGUUUUUUG [C15A C85G C94A] | -3.92 |
| GAUCAAUCUGCCCUCAGAGCUCGAGAACAUCUUCGGAUGCAGAGGAGGCAGGCUUCGGUGGCGCGAUAGCGCCAACGUCCUCAACCUCCAAUCCAUCCCACCACAUGAUGAAGCCUGAAGAGGCUUGGUUUUUUG [C3U G93C U112A C123G] | -1.14 |
| GACCAAUCUGCCCUCAGAGCUCGAGAACAUCUUCGGAUGCAGAGGAGGCACGCUUCGGUGGCGCGAUAGCGCCAACGUCCUCAACCUCCAAUGCAUCCCACCACAUGAUGUUGCCUGAAGAGCCUUGGUUUUUUG [G51C A111U] | -6.8 |
| GACCAAUCUGCCCUCAGUGCUCGAGAACAUCUUCGGAUGCAGAGGAGGCAGGCUUCGGUGGCGCGAUAGCGCCUACGUCCUCAACCUCCAAUGCAUCCCACCACAUGAUGAUGCCUGAAGAGCCUUGGUUUUUUG [A18U A74U] | -3.3 |
| GACCAAUCUGCCCUCAGAGCUCGAGAACAUCUUCGGAUACAGAGGAGGCAGGCUUCGGUGGCGCGAUAGCACCAACGUCCUUAACCCCCAAUGCAUCCCACCACAUGAUGAUGCCUGAAGAGCCUUGGUUUCUUG [G39A G71A C82U U87C U132C] | -1.47 |
| GACCAAUCUGCCCUCAGAGCUCGAGAACAUCUUCGGAUGCAGAGCAGGCAGGCUUCGAUGGCGCGAUAGCGCCAACGUCCUCAACCUCCAAUGCAUCCCACCACAUGAUGAUGCCUGAAGCGCCUUGGUUUUUUG [G45C G58A A121C] | 0.614 |
| GACCAAUCUGCCCUCAGAGCUCGAGAACAUCUUCGGAUGCAGAGGAGGCAGGCUUCGGUGGCUCGAUAGCGCCAACGUCCUCAACCUCCAAUGCAUCCCACCACAUGAUGAUGCCUGAAUAGCCUUGGUUUUUUU [G63U G120U G135U] | -2.56 |
| GACCAAUCUGCCCUCAGAGCUCGAGAACAUCUUCGGAUGCAGAGGAGGCAGGCUUCGGUGGCGUGAUAGCGCCAACGUCCUCAACCUCCAAUGCAUCCCACCACAUGAUGAUGCAUGAAGAGCCAUGGUUUUUUG [C64U C115A U125A] | -0.872 |
| GACCAAUCUGCGCUUAGAGCUCGAGAACAUCUUCGGAUGCAGAGGAGGCAGGCUUCGGUGGCGCGAUAGCGCCAACGUCCUCAACCUCCAAUGCAUCCCACCACAUGAUGAUGCCUGAAGAGCCUUGGUUUUUUG [C12G C15U] | -0.505 |

Reference: the RNAGym collection of RNA variant scans (doi:10.1073/pnas.2313332121)
